Experimental data from US20060140929A1 (Merck KGaA, published 2006).
Numbering of substitutions follows the chain as printed. Names and notes keep the numbering of the source.

B1: hirudin mutein M 37 (L13T) (other)
chain: VVYTDCTESGQNTCLCEGSVVCGQGNKCILGSDGEKNQCVTGEGTPKPESHNDGDFEEIPEEYLQ
B2: hirudin mutein M 46 (V21N) (other)
chain: B1 chain with T13L, V21N
B3: hirudin mutein M 47 (V21P) (other)
chain: B1 chain with T13L, V21P
B4: hirudin mutein M 48 (V21Q) (other)
chain: B1 chain with T13L, V21Q
B5: hirudin mutein M 49 (V21R) (other)
chain: B1 chain with T13L, V21R
B6: hirudin mutein M 50 (I29A) (other)
chain: B1 chain with T13L, I29A
B7: hirudin mutein M 51 (I29D) (other)
chain: B1 chain with T13L, I29D
B8: hirudin mutein M 52 (I29E) (other)
chain: B1 chain with T13L, I29E
B9: hirudin mutein M 53 (I29G) (other)
chain: B1 chain with T13L, I29G
B10: hirudin mutein M 54 (I29H) (other)
chain: B1 chain with T13L, I29H
B11: hirudin mutein M 55 (I29K) (other)
chain: B1 chain with T13L, I29K
B12: hirudin mutein M 38 (L15A) (other)
chain: B1 chain with T13L, L15A
B13: hirudin mutein M 56 (I29N) (other)
chain: B1 chain with T13L, I29N
B14: hirudin mutein M 57 (I29Q) (other)
chain: B1 chain with T13L, I29Q
B15: hirudin mutein M 58 (I29R) (other)
chain: B1 chain with T13L, I29R
B16: hirudin mutein M 59 (I29S) (other)
chain: B1 chain with T13L, I29S
B17: hirudin mutein M 60 (I29T) (other)
chain: B1 chain with T13L, I29T
B18: hirudin mutein M 61 (L30A) (other)
chain: B1 chain with T13L, L30A
B19: hirudin mutein M 62 (L30D) (other)
chain: B1 chain with T13L, L30D
B20: hirudin mutein M 63 (L30E) (other)
chain: B1 chain with T13L, L30E
B21: hirudin mutein M 64 (L30G) (other)
chain: B1 chain with T13L, L30G
B22: hirudin mutein M 65 (L30H) (other)
chain: B1 chain with T13L, L30H
B23: hirudin mutein M 39 (L15H) (other)
chain: B1 chain with T13L, L15H
B24: hirudin mutein M 66 (L30K) (other)
chain: B1 chain with T13L, L30K
B25: hirudin mutein M 67 (L30N) (other)
chain: B1 chain with T13L, L30N
B26: hirudin mutein M 68 (L30P) (other)
chain: B1 chain with T13L, L30P
B27: hirudin mutein M 69 (L30Q) (other)
chain: B1 chain with T13L, L30Q
B28: hirudin mutein M 70 (L30R) (other)
chain: B1 chain with T13L, L30R
B29: hirudin mutein M 71 (L30S) (other)
chain: B1 chain with T13L, L30S
B30: hirudin mutein M 72 (L30T) (other)
chain: B1 chain with T13L, L30T
B31: hirudin mutein M 73 (V40A) (other)
chain: B1 chain with T13L, V40A
B32: hirudin mutein M 74 (V40T) (other)
chain: B1 chain with T13L, V40T
B33: hirudin mutein M 75 (K47T) (other)
chain: B1 chain with T13L, K47T
B34: hirudin mutein M 40 (L15Q) (other)
chain: B1 chain with T13L, L15Q
B35: hirudin mutein M 76 (P48A) (other)
chain: B1 chain with T13L, P48A
B36: hirudin mutein M 77 (P48T) (other)
chain: B1 chain with T13L, P48T
B37: hirudin mutein M 78 (D53E) (other)
chain: B1 chain with T13L, D53E
B38: hirudin mutein M 79 (D53N) (other)
chain: B1 chain with T13L, D53N
B39: hirudin mutein M 80 (D53R) (other)
chain: B1 chain with T13L, D53R
B40: hirudin mutein M 81 (F56H) (other)
chain: B1 chain with T13L, F56H
B41: hirudin mutein M 1 (I29A L30A) (other)
chain: B1 chain with T13L, I29A, L30A
B42: hirudin mutein M 12 (I29A L30K) (other)
chain: B1 chain with T13L, I29A, L30K
B43: hirudin mutein M 13 (I29A L30Q) (other)
chain: B1 chain with T13L, I29A, L30Q
B44: hirudin mutein M 14 (I29A L30R) (other)
chain: B1 chain with T13L, I29A, L30R
B45: hirudin mutein M 41 (L15T) (other)
chain: B1 chain with T13L, L15T
B46: hirudin mutein M 15 (I29A L30T) (other)
chain: B1 chain with T13L, I29A, L30T
B47: hirudin mutein M 16 (I29D L30A) (other)
chain: B1 chain with T13L, I29D, L30A
B48: hirudin mutein M 17 (I29D L30Q) (other)
chain: B1 chain with T13L, I29D, L30Q
B49: hirudin mutein M 19 (I29E L30K) (other)
chain: B1 chain with T13L, I29E, L30K
B50: hirudin mutein M 20 (I29E L30Q) (other)
chain: B1 chain with T13L, I29E, L30Q
B51: hirudin mutein M 21 (I29E L30R) (other)
chain: B1 chain with T13L, I29E, L30R
B52: hirudin mutein M 22 (I29E L30T) (other)
chain: B1 chain with T13L, I29E, L30T

Target: thrombin
Experiment: cell-based or functional assay

Binder	Relative Activity (ratio of variant IC50/WT IC50), chromogenic thrombin inhibition assay [ratio]
B1	0.6
B2	0.83
B3	1
B4	0.83
B5	0.77
B6	1
B7	1
B8	1
B9	1.8
B10	1
B11	1
B12	0.9
B13	1
B14	1
B15	1
B16	1
B17	1
B18	1
B19	2
B20	3.33
B21	2.2
B22	1
B23	0.65
B24	1
B25	1.54
B26	1.83

Binder	Relative Activity (ratio of variant IC50/WT IC50), chromogenic thrombin inhibition assay [ratio]
B27	1
B28	1
B29	1.83
B30	1
B31	1
B32	1
B33	2.2
B34	0.34
B35	1
B36	1
B37	1
B38	1
B39	1
B40	0.8
B41	1.4
B42	1.45
B43	1.6
B44	2.7
B45	0.4
B46	1.21
B47	1.6
B48	2
B49	1.1
B50	1.52
B51	1.21
B52	1.8
